Assay results: article PMC1764428, “Secretion and properties of a hybrid Kluyveromyces lactis-Aspergillus niger β-galactosidase” (Microbial Cell Factories, 2006)

Substrate: O=[N+]([O-])c1ccccc1O[C@@H]1O[C@H](CO)[C@H](O)[C@H](O)[C@H]1O
Assay: o-nitrophenol release, Lineweaver-Burk
Type: biochemical, Kluyveromyces lactis
Conditions: crude extract (30 μg protein); buffer Z with 1.6 mM MgSO4; ONPG 2-12 mM

B1: native K. lactis β-galactosidase (pSPGK1-LAC4) (Kluyveromyces lactis NRRL Y-1140) (protein)
chain: MSCLIPENLRNPKKVHENRLPTRAYYYDQDIFESLNGPWAFALFDAPLDAPDAKNLDWETAKKWSTISVPSHWELQEDWKYGKPIYTNVQYPIPIDIPNPPTVNPTGVYARTFELDSKSIESFEHRLRFEGVDNCYELYVNGQYVGFNKGSRNGAEFDIQKYVSEGENLVVVKVFKWSDSTYIEDQDQWWLSGIYRDVSLLKLPKKAHIEDVRVTTTFVDSQYQDAELSVKVDVQGSSYDHINFTLYEPEDGSKVYDASSLLNEENGNTTFSTKEFISFSTKKNEETAFKINVKAPEHWTAENPTLYKYQLDLIGSDGSVIQSIKHHVGFRQVELKDGNITVNGKDILFRGVNRHDHHPRFGRAVPLDFVVRDLILMKKFNINAVRNSHYPNHPKVYDLFDKLGFWVIDEADLETHGVQEPFNRHTNLEAEYPDTKNKLYDVNAHYLSDNPEYEVAYLDRASQLVLRDVNHPSIIIWSLGNEACYGRNHKAMYKLIKQLDPTRLVHYEGDLNALSADIFSFMYPTFEIMERWRKNHTDENGKFEKPLILCEYGHAMGNGPGSLKEYQELFYKEKFYQGGFIWEWANHGIEFEDVSTADGKLHKAYAYGGDFKEEVHDGVFIMDGLCNSEHNPTPGLVEYKKVIEPVHIKIAHGSVTITNKHDFITTDHLLFIDKDTGKTIDVPSLKPEESVTIPSDTTYVVAVLKDDAGVLKAGHEIAWGQAELPLKVPDFVTETAEKAAKINDGKRYVSVESSGLHFILDKLLGKIESLKVKGKEISSKFEGSSITFWRPPTNNDEPRDFKNWKKYNIDLMKQNIHGVSVEKGSNGSLAVVTVNSRISPVVFYYGFETVQKYTIFANKINLNTSMKLTGEYQPPDFPRVGYEFWLGDSYESFEWLGRGPGESYPDKKESQRFGLYDSKDVEEFVYDYPQENGNHTDTHFLNIKFEGAGKLSIFQKEKPFNFKISDEYGVDEAAHACDVKRYGRHYLRLDHAIHGVGSEACGPAVLDQYRLKAQDFNFEFDLAFE
notes: expressed in K. lactis MW190-9B (lac4-8); crude cell-free extract
  Km: 1500 µM
